Laboratory results as given in patent US20060160201A1, “Three-dimensional structures of HDAC9 and Cabin1 and compound structures and methods related thereto” (priority 2003, published 2006).

What was measured:
[1] = target: T1, Human MEF2B (residues 1-93 of SEQ ID NO:2) (human, UniProt Q02080 1-93); experiment: EMSA super shift of the preformed MEF2B (1-93)/DNA complex, native PAGE stained with ethidium bromide; the lower strip shows the HDAC4(155-220) protein loaded
T1 construct: Symmetric homodimer; In ITC it was used free; For the crystals it was expressed as a fusion with Cabin1 (cleaved with PreScission protease) or with MITR; also called MEF2B (1-93); MADS-box/MEF2S domain
T1 sequence: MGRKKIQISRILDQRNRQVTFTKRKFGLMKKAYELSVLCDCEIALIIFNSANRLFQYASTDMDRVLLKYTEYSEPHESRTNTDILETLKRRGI

MEF2B (1-93)/DNA complex = target: T2, MEF2B (1-93)/DNA complex (Homo sapiens, UniProt Q02080); experiment: Electrophoresis mobility shift assay (EMSA) of ternary HDAC4/MEF2/DNA complex formation; type: binding; conditions: approx. 20 μM protein
T2 construct: MEF2B (1-93) was expressed and purified similarly to the MEF2B/HDAC9 fusion protein; made in house
T2 sequence (Q02080 1-93): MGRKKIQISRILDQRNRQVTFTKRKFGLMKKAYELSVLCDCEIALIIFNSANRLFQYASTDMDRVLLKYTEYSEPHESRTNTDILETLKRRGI
Description: MEF2B (1-93) was expressed and purified similarly to the MEF2B/HDAC9 fusion protein. […] All HDAC4 mutants were generated by Quickchange mutation kit (Stratagene) and purified similarly to the wild type proteins. […] EMSA was performed in a buffer of 20 mM Hepes (pH 7.7), 300 mM NaCl, 1 mM DTT, and 10% glycerol. The concentration of DNA was kept at 20 μM, approximately 40 μM of MEF2B was used in all binding reactions except the DNA control (Lane 1 in FIG. 6A). […] The binding reactions were analyzed on a 4-20% gradient native PAGE in TBE and stained with ethidium bromide.
Structure-guided mutational analyses of HDAC4 was performed.

GST-MEF2B = target: T3, GST-MEF2B (Homo sapiens, UniProt Q02080); experiment: In vitro binding assay of Cabin1 mutants on GST-MEF2B beads; conditions: 35S-labeled Cabin1 (2144-2220) mutants
T3 construct: made in house; host or cells: E. coli DH5α
T3 sequence (Q02080 1-365): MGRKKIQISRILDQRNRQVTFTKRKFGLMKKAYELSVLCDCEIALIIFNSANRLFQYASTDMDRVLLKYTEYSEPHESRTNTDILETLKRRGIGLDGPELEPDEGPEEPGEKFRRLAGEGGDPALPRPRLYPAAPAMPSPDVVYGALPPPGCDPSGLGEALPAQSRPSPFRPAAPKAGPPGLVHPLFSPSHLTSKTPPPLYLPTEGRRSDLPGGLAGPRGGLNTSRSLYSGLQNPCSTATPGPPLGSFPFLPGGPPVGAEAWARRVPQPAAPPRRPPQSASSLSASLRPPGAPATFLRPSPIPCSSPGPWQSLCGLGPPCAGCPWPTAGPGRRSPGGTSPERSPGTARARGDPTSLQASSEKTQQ
Description: In vitro binding assay of Cabin1 mutants. The glutathione S-transferase(GST)-MEF2B fusion was expressed in E. coli DH5α and purified as previously described (Youn et al., 1999). [^35S]-labeled Cabin1 or its mutants was synthesized in vitro using pSG-Cabin1 (2144-2220) or the corresponding mutant plasmid (generated by Stratagene site-mutagenesis Kit) in a coupled transcription-translation system (TNT kit, Promega). Roughly equal amounts of wild type and mutant proteins were incubated with a 50% slurry of GST-MEF2B immobilized on glutathione-sepharose beads in 200 to 300 μL HEMG binding buffer (40 mM HEPES-[pH 7.8], 50 mM KCl, 5 mM MgCl2, 0.1% Triton X-100, 10% glycerol, 1.5 mM DTT, protease inhibitors [Boehringer-Mannheim], and 0.5 mg/mL bovine serum albumin). The beads were washed four times with 1 mL (each time) HEMG buffer. Bound proteins were eluted in 30 μL 50 mM Tris-Cl (pH 7.4) containing 15 mM glutathione, resolved by SDS-PAGE and visualized by autoradiography. The control was carried out with the wild type Cabin1 (2144-2220) and beads without immobilized GST-MEF2B (data not shown).

Molecule | binding result [1] | effect of mutation on binding to the MEF2B (1-93)/DNA complex (MEF2B (1-93)/DNA complex) | binding affinity of Cabin1 mutant to MEF2B (GST-MEF2B)
HDAC4 (155-220) Leu175Ala mutant (other, Made and purified like the wild type (pET28a, nickel agarose)) LKNKEKGKESAVASTEVKMKAQEFVLNKKKALAHRNLNHCISSDPRYWYGKTQHSSLDQSSPPQSG | no binding | disrupted the binding | –
Val171Lys: Val171Lys mutant of HDAC4 (155-220) (protein, left off: small tags and cut ends) LKNKEKGKESAVASTEKKMKLQEFVLNKKKALAHRNLNHCISSDPRYWYGKTQHSSLDQSSPPQSG | – | diminished the binding of MEF2 | –
V171K (other, also called Val171Lys; not shown: Vector-derived His tag and linker from pET28a (the protein was purified on nickel chelated agarose)) LKNKEKGKESAVASTEKKMKLQEFVLNKKKALAHRNLNHCISSDPRYWYGKTQHSSLDQSSPPQSG | no binding | – | –
HDAC4 (155-220) Leu175Lys mutant (other, Made and purified like the wild type (pET28a, nickel agarose)) LKNKEKGKESAVASTEVKMKKQEFVLNKKKALAHRNLNHCISSDPRYWYGKTQHSSLDQSSPPQSG | no binding | disrupted the binding | –
HDAC4 (155-220) Val179Ala mutant (other, Made and purified like the wild type (pET28a, nickel agarose)) LKNKEKGKESAVASTEVKMKLQEFALNKKKALAHRNLNHCISSDPRYWYGKTQHSSLDQSSPPQSG | no binding | disrupted the binding | –
Leu72Ala: Cabin1 (2144-2220) mutant, Leu2172 to Ala (protein) FPPEITVTPPTPTLLSPKGSISEETKQKAKSAILSAQSAANVRKESLCQPALEVLETSSQESSLESETDEDDDYMDI | – | – | either completely abolished or significantly reduced
Leu72Lys: Cabin1 (2144-2220) mutant, Leu2172 to Lys (protein, UniProt Q9Y6J0 2144-2220, looked up, variant L2172K) FPPEITVTPPTPTLLSPKGSISEETKQKKKSAILSAQSAANVRKESLCQPALEVLETSSQESSLESETDEDDDYMDI | – | – | either completely abolished or significantly reduced
Gln70Ala: Cabin1 (2144-2220) mutant outside the Cabin1/MEF2 interface (protein) FPPEITVTPPTPTLLSPKGSISEETKAKLKSAILSAQSAANVRKESLCQPALEVLETSSQESSLESETDEDDDYMDI | – | – | little effect
Leu72Trp: Cabin1 (2144-2220) mutant, Leu2172 to Trp (protein, UniProt Q9Y6J0 2144-2220, looked up, variant L2172W) FPPEITVTPPTPTLLSPKGSISEETKQKWKSAILSAQSAANVRKESLCQPALEVLETSSQESSLESETDEDDDYMDI | – | – | either completely abolished or significantly reduced
Ile76Ala: Cabin1 (2144-2220) mutant, Ile2176 to Ala (protein, UniProt Q9Y6J0 2144-2220, looked up, variant I2176A) FPPEITVTPPTPTLLSPKGSISEETKQKLKSAALSAQSAANVRKESLCQPALEVLETSSQESSLESETDEDDDYMDI | – | – | either completely abolished or significantly reduced
Gln70Trp: Cabin1 (2144-2220) mutant outside the Cabin1/MEF2 interface (protein) FPPEITVTPPTPTLLSPKGSISEETKWKLKSAILSAQSAANVRKESLCQPALEVLETSSQESSLESETDEDDDYMDI | – | – | little effect
